These results are taken from the Immune Epitope Database (IEDB).

Settings in all cases: source organism: Human papillomavirus 16
Experiment [1] deals with HLA-A*24:02. Kind of experiment: IEDB peptide-MHC binding, purified MHC/competitive/radioactivity; ≥ and ≤ were set here for values at or beyond the usual limits of such assays.
For experiment [2], the target named is HLA-A*01:01. Kind of experiment: IEDB peptide-MHC binding, purified MHC/competitive/radioactivity; filed as Kd, often an IC50 or EC50 that approximates it; ≥ and ≤ were set here for values at or beyond the usual limits of such assays.
For experiment [3], the target named is HLA-A*11:01. Kind of experiment: IEDB peptide-MHC binding, purified MHC/competitive/radioactivity; ≥ and ≤ were set here for values at or beyond the usual limits of such assays.
The target in experiment [4] is HLA-A*01:01. The experiment is described as above.
Experiment [5] deals with HLA-A*03:01. Described as above.
In experiment [6] the target is HLA-A*11:01. Kind of experiment: IEDB peptide-MHC binding, purified MHC/competitive/radioactivity; filed as Kd, often an IC50 or EC50 that approximates it; ≥ and ≤ were set here for values at or beyond the usual limits of such assays.
In experiment [7] the target is HLA-A*24:02. The experiment is described as above.
Experiment [8] addresses HLA-A*03:01. The description is as above.

As for RAHYNIVTF, in the experiment with HLA-A*24:02 [1], the concentration for half-maximal inhibition (IC50) (usually the concentration at which inhibition is half-maximal) worked out at 290 nM.

For the sequence EIDGPAGQA, the dissociation constant Kd (commonly the concentration at which binding is half-saturated) with HLA-A*01:01 [2] worked out at 3240 nM.

Consider IVYRDGNPY, for which the IC50 with HLA-A*11:01 [3] was found to be 21 nM.

As for YSKISEYRHY, in the experiment with HLA-A*01:01 [4], the half-inhibitory concentration (IC50) came out at 147 nM.

On to FQDPQERPRK, for which the IC50 in the experiment with HLA-A*11:01 [3] was determined as 453 nM.

HLDKKQRFH: the 50% inhibitory concentration (IC50) in the experiment with HLA-A*03:01 [5] came to 68 nM.

HVDIRTLED: the dissociation constant (Kd) with HLA-A*01:01 [2] came to 3760 nM.

Regarding GIVCPICSQK, the half-inhibitory concentration (IC50) in the experiment with HLA-A*11:01 [3] amounted to 98 nM.

Turning to TTDLYCYEQ, the Kd with HLA-A*01:01 [2] came to 3760 nM.

In the case of GTTLEQQYNK, the IC50 with HLA-A*11:01 [3] was 6 nM.

With CYSLYGTTL, in the experiment with HLA-A*24:02 [1], the half-maximal inhibitory concentration (IC50) stood at 137 nM.

As to VYDFAFRDL, the 50% inhibitory concentration (IC50) with HLA-A*24:02 [1] came to 360 nM.

QAEPDRAHY: the Kd in the experiment with HLA-A*01:01 [2] was 2790 nM.

Turning to QQLLRREVY, the Kd with HLA-A*11:01 [6] amounted to 1190 nM.

As for ISEYRHYCY, the IC50 in the experiment with HLA-A*11:01 [3] stood at 166 nM; in the experiment with HLA-A*01:01 [4] it was 49 nM.

AMFQDPQER: the IC50 with HLA-A*11:01 [3] was determined as 12 nM; with HLA-A*03:01 [5], 290 nM.

With DIILECVYCK, the IC50 in the experiment with HLA-A*11:01 [3] came to 280 nM.

LLRREVYDF: in the experiment with HLA-A*24:02 [7], the Kd is 4780 nM.

For the sequence AVCDKCLK, the concentration for half-maximal inhibition (IC50) in the experiment with HLA-A*11:01 [3] was determined as 496 nM.

RFHNIRGRW: in the experiment with HLA-A*24:02 [1], the IC50 was 220 nM.

Consider LLIRCINCQK, for which the IC50 turned out to be 24 nM with HLA-A*11:01 [3] and 92 nM with HLA-A*03:01 [5].

On to FYSRIREL, for which, in the experiment with HLA-A*24:02 [1], the 50% inhibitory concentration (IC50) stood at 461 nM.

Regarding TTLEQQYNK, in the experiment with HLA-A*11:01 [3], the concentration for half-maximal inhibition (IC50) came out at 6 nM.

Take MHQKRTAMF: in the experiment with HLA-A*24:02 [7], the Kd was 4490 nM.

As to IILECVYCK, the dissociation constant (Kd) in the experiment with HLA-A*03:01 [8] turned out to be 3700 nM. Also, the IC50 in the experiment with HLA-A*11:01 [3] amounted to 125 nM.

In the case of SLYGTTLEQ, in the experiment with HLA-A*03:01 [8], the Kd is 3750 nM.

With ETTDLYCY, the 50% inhibitory concentration (IC50) with HLA-A*01:01 [4] is 320 nM.
